Measurements as given in publication PMC8118686, “Identification of a RAD52 Inhibitor Inducing Synthetic Lethality in BRCA2-Deficient Cancer Cells” (Frontiers in Pharmacology, 2021).

Target: the molecule itself
Assay: cross-linking; called EMSA by the paper: 1 uM 6His-RAD52 in 25 mM HEPES pH 7.5, 1 mM DTT, 10 mM MgCl2, 150 mM NaCl, 0.1 mg/ml BSA, 37 °C; with or without 400 uM 50-nt ssDNA oligo and 100 uM C791-0064; 0.1% glutaraldehyde 3 min; 4-20% SDS-PAGE, Western blot with anti-Histag

B1: Human 6His-RAD52 protein (natural protein, UniProt P43351 1-418, looked up)
chain: MSGTEEAILGGRDSHPAAGGGSVLCFGQCQYTAEEYQAIQKALRQRLGPEYISSRMAGGGQKVCYIEGHRVINLANEMFGYNGWAHSITQQNVDFVDLNNGKFYVGVCAFVRVQLKDGSYHEDVGYGVSEGLKSKALSLEKARKEAVTDGLKRALRSFGNALGNCILDKDYLRSLNKLPRQLPLEVDLTKAKRQDLEPSVEEARYNSCRPNMALGHPQLQQVTSPSRPSHAVIPADQDCSSRSLSSSAVESEATHQRKLRQKQLQQQFRERMEKQQVRVSTPSAEKSEAAPPAPPVTHSTPVTVSEPLLEKDFLAGVTQELIKTLEDNSEKWAVTPDAGDGVVKPSSRADPAQTSDTLALNNQMVTQNRTPHSVCHQKPQAKSGSWDLQTYSADQRTTGNWESHRKSQDMKKRKYDPS
notes: RAD52, human; The size of the oligomer is not measured here; heptamer is only cited
B1: binds.
